# B1: WDR41 (parent)
# chain: WTMQAYERNFWDPSPQLDTQQEIK
# Variants of: B1
# Assay: protein stability index of a GFP-peptide fusion (GPS, HEK-293T) (PSI 1-6); higher = more stable
# Details: c terminus: a fixed tail appended
# 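Note: lentivirally expressed fusions sorted by FACS into six bins by GFP to DsRed ratio, PSI derived from sequencing read proportions per bin multiplied by bin number.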
row,Variant,protein stability index
1,WTMQAYERPFWDPSPQLDTQQEIK [N9P],2.71
2,WTMQAYERKFWDPSPQLDTQQEIK [N9K],1.94
3,WTMQAYERGFWDPSPQLDTQQEIK [N9G],2.64
4,WTMQAYERIFWDPSPQLDTQQEIK [N9I],2.04
5,WTMQAYERMFWDPSPQLDTQQEIK [N9M],1.45
6,WTMQAYERRFWDPSPQLDTQQEIK [N9R],1.63
7,WTMQAYERHFWDPSPQLDTQQEIK [N9H],1.6
8,WTMQAYERNFWDPSAQLDTQQEIK [P15A],2.82
9,WTMQAYERNFWDPSHQLDTQQEIK [P15H],2.56
10,WTMQAYERNFWDPSWQLDTQQEIK [P15W],1.75
11,WTMQAYERNFWDPSCQLDTQQEIK [P15C],2.3
12,WTMQAYERNFWDPSFQLDTQQEIK [P15F],1.96
13,WTMQAYERNFWDPSIQLDTQQEIK [P15I],2.15
14,WTMQAYERNFWDPSYQLDTQQEIK [P15Y],1.81
15,WTMQAYERNFWDPSLQLDTQQEIK [P15L],2.3
16,WTMQAYERNFWRPSPQLDTQQEIK [D12R],3.92
17,WTMQAYERNFWIPSPQLDTQQEIK [D12I],2.15
18,WTMQAYERNFWFPSPQLDTQQEIK [D12F],3.8
19,WTMQAYERNFWQPSPQLDTQQEIK [D12Q],1.37
20,WTMQAYERNFWPPSPQLDTQQEIK [D12P],3.31
21,WTMQAYERNFWVPSPQLDTQQEIK [D12V],3.8
22,WTMQAYERNFWSPSPQLDTQQEIK [D12S],2.51
23,WTMQAYERNFWDSSPQLDTQQEIK [P13S],3.46
24,WTMQAYERNFWDKSPQLDTQQEIK [P13K],3.44

row,Variant,protein stability index
1,WTMQAYERNFWDGSPQLDTQQEIK [P13G],2.1
2,WTMQAYERNFWDNSPQLDTQQEIK [P13N],2.29
3,WTMQAYERNFWDDSPQLDTQQEIK [P13D],3.07
4,WTMQAYERNFWDQSPQLDTQQEIK [P13Q],2.65
5,WTMQAYERNFWDASPQLDTQQEIK [P13A],2.11
6,WTMQAYERNFWDVSPQLDTQQEIK [P13V],2.04
7,WTMQAYERNFWDISPQLDTQQEIK [P13I],2.6
8,WTMQAYERNFWDMSPQLDTQQEIK [P13M],2.34
9,WTMQAYEWNFWDPSPQLDTQQEIK [R8W],2.4
10,WTMQAYESNFWDPSPQLDTQQEIK [R8S],3.21
11,WTMQAYEANFWDPSPQLDTQQEIK [R8A],2.52
12,WTMQAYEPNFWDPSPQLDTQQEIK [R8P],3.77
13,WTMQAYEYNFWDPSPQLDTQQEIK [R8Y],2.52
14,WTMQAYERNFWDPSPQLVTQQEIK [D18V],2.63
15,WTMQAYERNFWDPSPQLWTQQEIK [D18W],1.83
16,WTMQAYERNFWDPSPQLLTQQEIK [D18L],2.63
17,WTMQAYERNFWDPSPQLRTQQEIK [D18R],2.02
18,WTMQAYERNFWDPSPQLFTQQEIK [D18F],2.14
19,WTMQAYERNFWDPSPQLQTQQEIK [D18Q],2.34
20,WTMQAYERNFWDPSPQLITQQEIK [D18I],2.28
21,WTMQAYERNFWDPSPQLNTQQEIK [D18N],2.17
22,WTMQAYERNFWDPSPQLATQQEIK [D18A],2.32
23,WTMQAYERNFWDPSPQLDTQSEIK [Q21S],3.13
24,WTMQAYERNFWDPSPQLDTQPEIK [Q21P],2.66

row,Variant,protein stability index
1,WTMQAYERNFWDPSPQLDTQEEIK [Q21E],2.56
2,WTMQAYERNFWDPSPQLDTQLEIK [Q21L],1.92
3,WTMQAYERNFWDPSPQLDTQHEIK [Q21H],1.99
4,WTMQAYERNFWDPSPQLDTQCEIK [Q21C],2.12
5,WTMQAYERNFWDPSPQLDTQAEIK [Q21A],2.39
6,WTMQAYERNFWDPSPQLDTQKEIK [Q21K],2.28
7,WTMQAYERNFWDPSPQLDTQFEIK [Q21F],1.93
8,WTMQAYERNFWDPSPQLDTQREIK [Q21R],2.84
9,WTMQAYERNFWDPSPQLDTQWEIK [Q21W],1.6
10,WTMQAYERNFWDPSPQLDTQQEAK [I23A],2.99
11,WTMQAYERNFWDPSPQLDTQQEFK [I23F],2.43
12,WTMQAYERNFWDPSPQLDTQQECK [I23C],2.11
13,WTMQAYERNFWDPSPQLDTQQEMK [I23M],2.18
14,WTMQAYERNFWDPSPQLDTQQEKK [I23K],3.93
15,WTMQAYERNFWDPSPQLDTQQEGK [I23G],3.05
16,WTMQAYERNFWDPSPQLDTQQESK [I23S],3.27
17,WTMEAYERNFWDPSPQLDTQQEIK [Q4E],2.05
18,WTMWAYERNFWDPSPQLDTQQEIK [Q4W],1.72
19,WTMYAYERNFWDPSPQLDTQQEIK [Q4Y],2.42
20,WTMMAYERNFWDPSPQLDTQQEIK [Q4M],2.92
21,WTMDAYERNFWDPSPQLDTQQEIK [Q4D],2.26
22,WTSQAYERNFWDPSPQLDTQQEIK [M3S],1.79
23,WTCQAYERNFWDPSPQLDTQQEIK [M3C],1.97
24,WTKQAYERNFWDPSPQLDTQQEIK [M3K],2.96

row,Variant,protein stability index
1,WTGQAYERNFWDPSPQLDTQQEIK [M3G],2.46
2,WTFQAYERNFWDPSPQLDTQQEIK [M3F],2.07
3,WTTQAYERNFWDPSPQLDTQQEIK [M3T],2.86
4,WTIQAYERNFWDPSPQLDTQQEIK [M3I],2.14
5,WTHQAYERNFWDPSPQLDTQQEIK [M3H],2.63
6,WTMQAYERNFWDPSPQLDTQQSIK [E22S],2.96
7,WTMQAYERNFWDPSPQLDTQQGIK [E22G],2.34
8,WTMQAYERNFWDPSPQLDTQQAIK [E22A],2.45
9,WTMQAYERNFWDPSPQLDTQQMIK [E22M],2.03
10,WTMQAYERNFWDPSPQLDTQQIIK [E22I],2.81
11,WTMQAYERNFWDPSPQLDTQQTIK [E22T],2.33
12,WTMQAYERNFWDPSPQLDTQQVIK [E22V],2.36
13,WTMQAYVRNFWDPSPQLDTQQEIK [E7V],2.88
14,WTMQAYRRNFWDPSPQLDTQQEIK [E7R],2.86
15,WTMQAYGRNFWDPSPQLDTQQEIK [E7G],2.7
16,WTMQAYPRNFWDPSPQLDTQQEIK [E7P],2.79
17,WTMQAYTRNFWDPSPQLDTQQEIK [E7T],2.72
18,WTMQAYDRNFWDPSPQLDTQQEIK [E7D],3.25
19,WTMQAYFRNFWDPSPQLDTQQEIK [E7F],2.88
20,WTMQAYERNVWDPSPQLDTQQEIK [F10V],3.68
21,WTMQAYERNQWDPSPQLDTQQEIK [F10Q],4.61
22,WTMQAYERNHWDPSPQLDTQQEIK [F10H],4.14

# From the supplement of paper PMC10567573
